B1: Bat Iflavirus (nucleic acid, listed as Iflavirus sp.)
DNA: ACGAATCGGTATACGCTTCGGTACCTATTGTTGCAAGTTCGTTCCCTATTTTCGATTTGCCTGCCCGAATTTGACTCAAACAATTGTGACATACTATGTCTCTGTTTGAAAGCACTACACGAGTTTGCGCCCAGCATGTATGTTTTCAAGTCTTTTGTATAAGTCTGCCTCTATAGTGGTTTTCTTTGACCTTAAAGCCTTGTCAACCATCCTATATGCTGCATCGAGACTTGATGTCAATCTGCCTCTACTACGCAAATGTCTAGTAATTAGTTATAAGGTTTTACTATTTTCCCTCATTTCCAATTTTAGTTTGTAGTGTATGTGAGTATCATTCTTACTCCGACTGTTAAGAGAAACCAATTTATAGTCGTTAAATATGATAAATGGAATGAATGATGGTGTCATTTTAAAAACACTCTTCTCTATAGGCGTAAGCATTCTCGCTCTTAGAGTCGTAAAGAAGAAATGCCGTGTCTATCAGTATGTTATGCGATTTATTTTCTGCCACGCGCTTCTAGTGCAATCTAGTTGACATACAGACATTGCCTACCACTCGCGAGGGTCGACCGGTAGTGTAAGGAGTAAGTGATGATTTCCGCTTATTCTGTACCCTTTGCCTGGTGAGGACAGATCCTGACTAATTTTAAATATAAATGAACACTAGCTTCCAAG
B2: Bat Picornavirus 2 (nucleic acid)
DNA: GGGTTTTACGAAACCCGTATACACCAGACCTTTTCTCCCCTCCCCCTCCACCTACCTTTTCCCCCTCTTTGGACCGAAACAAGGACACGTAAGTGGAAACGCGATTTTATATGTGGTTGGCCACCACGGAATAACGGCAATTGTCTACATGTGGGAAGTGCAACCTCCCTAGCCGATAACCCCTGACCGGGTGTGTAGGATAGGAAAGGTGCCCACTGTGGGCGACAGGTTATGGTAGAGTGGATACCTAGCCAGGGGCAATGGGACTGCTTTGCATATCCCTAATGAAGTATTGAGATTTCTCTGCTCATTACCCGGTGATGGTTGTGTGGGGGGGGCCCCATACACTAGATCCATACTGCCTGATAGGGTCGCGGCTGGCCGACCATAACCTGTATAGTCAGTTGAATTCAGCCAAG
B3: Bat dicibavirus (nucleic acid)
DNA: GTATAGCACCGGAATGGTATTTTACTACTCCAAGTATACGTACTAGGAGTTAAACCCTGTAATTTACAGGGGATTTAGTGACTTTTATCCGTAAAAGTCGATTGGACGTTAATCGGTAACGAGGCCAAGTACCGTGAACCAATTTAAAAACGTATTTTCTCATGTGGTAGAACCAACTTGGAAATAGCATGGCATATAGGTTGTTTAGGG
B4: Bovine viral diarrhea virus 3 (nucleic acid)
DNA: GTATACGCCCAGTTAGTTCAGGTGGACGTGTACGATTGGGTATCCCAAATTAATAATTTGGTTTAGGGACTAAATCCCCTGGCGAAGGCCGAAACAGGTTAACCATACCTTTAGTAGGACGAGCATAATGGGGGACTAGTGGTGGCAGTGAGCTCCCTGGATCACCGAAGCCCCGAGTACGGGGTAGTCGTCAATGGTTCGACGCATCAAGGAATGCCTCGAGATGCCATGTGGACGAGGGCGTGCCCACGGTGTATCTTAACCCAGGCGGGGGCCGCTTGGGTGAAATAGGGTTGTTATACAAGCCTTTGGGAGTACAGCCTGATAGGGTGTTGCAGAGACCTGCTACACCACTAGTATAAAAACTCTGCTGTACATGGCAC
B5: Boone cardiovirus 1 (nucleic acid, listed as Cardiovirus sp.)
DNA: TACGATCGCTGTACATTCCACTACTGCCAATTAGCTCCCCCTTCCCGTTGCTCCCCTCTATAAGGAGAGCCTTCTCTTGCAAAGGTGAAGCCTTCACCCCCGGTCGAAGCCGCTTGGAATAAGACAGGGTTATTTTCTCCTCTCCTCGGCGCTTGCCTCTTCTAAGCTGAATAGGTTCTATCTATTCAGGCGGATGGTCTGGTCCGTTCCTTCTTGGACAGAGTGTGTATCTGGGTTTTCCGGATCTCGACCACACACTCACCAGAGCTCAGGAGTGATTAAGTCAAGGCCCGATCTGCGGCGAAAAGGAAATGAAGTATTTTGCAGCTGTAGCGACCTCTCAAGGCCAGCGGATTTCCCCACCTGGTGACAGGTGCCTCTGGGGCCAAAAGCCACGTGTTAATAGCACCCTTGAGAGCGGTGGTACCCCACCACCCTGCAAATTATGGATTTGACTTAGTAACTAAAAGATTGACTTGGCATACCTCAACCTGAGCGGCGGCTAAGGATGCCCTGAAGGTACCCGTGTTGAAATCGCTTCGGCGACCATGGATCTGATCAGGGGCCCTGCCTGGAGTGGTTCTATCCCACACAGCGTAGGGTTAAAAAACGTCTAACCGCCCCACAAAGACCCCGGCAGGGATGCCGGTTTCCTTTTTACCAATTCTTGACACT
B6: Bovine rhinitis A virus (nucleic acid)
DNA: TTTTGCGGCTCTGCCGCCGTTCGGGTTTTACCTGTTTTCACAGAGCAAAACAGGACCTCTAGTTTCGTGCTTAAACGAGATCATGCTCGAACTAGAACTATAACGCTGGTCACTGGACCCGTGCCGCGCCTTGCGGATCTTTGCGGGAATGGTGGCTAGTGGGCTGTGGAAGTGACTCTAACCACACGCCCCTCAAGTGTGGGAAAACACGAACTGGTGTAGCGACGACGATAGGCCTTGGGACACCCTCTCCAGTGATGGAGACCCAAGGGGCCAAAAGCCACGCCTTGTGCCCTGTCGTTCACAACCCCAGTGCAGTTCGTGCCAGTACCTGCTTTTGGGAAGTGTGCTTTGGACAGCTGAAAACAGTCCTAGTGGGAGACTAAGGATGCCCAGGAGGTACCCGGAGGTAACAAGTGACACTCTGGATCTGACTTGGGGAGAGCGGGTCTGCTTTACAGACGCCACTCTTTAAAAAACTTCTATGTCTCGTCAGGCACCGGAGGCCGGGCCTTTTCCTTTAAAACAATACACTTT
modifications: Bovine rhinitis A virus
B7: Rafivirus LPXYC222841 (nucleic acid, listed as Rafivirus sp.)
DNA: GTGTCCGGGAAGCGACTCAAGCTTTTGACTGAGTCTCTACACCTTCATCCGTAACATCTTTAAGTTTATGTGCCTATGGACCTCTAGTGCACTGCCATCACCGGGGGTGTATTGGACTGGTTTTTCCACAATCCATTCATCCTGAGGAATTTTGGCTTTGTTACTAGGATGGTCCCACCACACGCTTATCTGTGCCTATTGTGTCAACCATGTTCTTAAGTAGTTGTGCCCGTGGGTGAGTAGATAACCACAACAATCCGATAAAGCATCTCGCAAGGATGTGAGTAATGGAGTGTATGTGCTACAGAGACCCACAACCTGAACCAAGAGAGACACAGTGAGGATTGTAAAGGGGGAACTCTTTGAAAGGGCATGTCCCGCAATTCCTACTGACTGACACCGGGGGTTGGTGTCGGTGGATTTTAGCAAATCCTGTTACTGGGTGATAGCCTTGTGCACTTCACTTGGTTCTTGTATAAGTGCTGTA
B8: Breda virus (nucleic acid)
DNA: ATCACCTAGTACTTACAAGCGGGTCAAACCGCCCTCCGGAACGGTCATAACCCCCTCCCGAACGTGCGCTTGACGTGACTGGTCTTTCAGTCTAGCTTTCTGAGAAATACTCCGGGGTTGTAACCCACCATTTTGACCTTTGGTCAGTTTGGTAACACTCCAACCAAACAGCATCTGACCCACCTCCAGCTTGCTGCAGGCCATTTGGACCAAACGGGTTCAGATATCTTGTGGCTAAACCTCTGACCCACCTCCAGTTTACTGCAGGCCTTTTGGACTAAACGGGTACAGACTCTTTGTGGTTAGTTTTTAACTACCCACTGTTTAGCCGCCAACCTGATTTTTATTGTTACAAAATTTTGTGTTTACACATTATTTTCTTACGGTTGGCAGTTTGTTTGGTTGTTTGCACAGTTTTTGCTGATACCAATTTTTACTGTGCTTTTGGTGTTTTCGGCTAAGGCTGTTTTTCACATACTTAGTTTGCTTGAAGTAACCTTCACAACATCTGTTTTGTTTTTGGTTTCTAAGGTAAAGAGTTTCAGGAAAAAACATAGGCGCCCATCTTGTGGTGTCTAGTTTTAATTAATCTGGCAAACAAGTATCAAGTCATCGACTCCCTTTGGAGTGAGACTTACGAGTACCAATTCGCCTATTTTGGCCATCCATATAAAA
B9: Bat Picornavirus 1 (nucleic acid)
DNA: GAAACCCGTATACACCGGACCTTTTCTCCCCTCCCTCTCCACTTACCTTTTTCCCCTCTTCGGCATGAAACAAGGATTATTCAAGTGGAAACGCGATTTAATATGCGGCTGGCCACCGCGGAATAACGGCAATTGTGTATCTGCTGGAAGCCAAGCCTGCCTAGCCGATAGCCCTTGACCGGGTGTGTAGGATAGCCCAGGAACCAGCAATACGCGACAGGTTATGGTAGAGTAGATACCTAGCCAGGGGCAATGGGACTGCATTGCATATCCCTAATGAACCATTGAGATTTCTCTGGTCATTACCCGGTGATGGTTACTAGAGGGGGGCCTCTAGTACTAGATCTATACTGCCTGATAGGGTCGCGGCTGGCCGACCATGACCTGTATAGTCAGTTGATTTGAGCAAT
B10: Bat sapelovirus (nucleic acid, listed as Sapelovirus sp.)
DNA: GACAGGTGTTTTGGAGGGCGGATGACGATATCTGGCTGGCCACCAGGGAATAACGGCAAATGTCTGATCATACGGTTCACAAGTCTACCGGCGATAGTGGTTCAACACCATGTGTAGCAGGGATTCTTGCGTATGTGAAGGCGACAGTGC
B11: Ball python nidovirus (nucleic acid)
DNA: CCCCTTCACCCATAGGCACTAGGAGAACAGGATAACCCCTAACGGGGCATCCTGCCTGTGACCTTTCAGATTCGCTAGTTAGATATCTTCACAGACTCTGCTAGGCTTCTGACCCAGTCCGTTCCCAAAGTCCGTTACCGCCCGAGTAGCGCTTAGGCGCGAAAGGGACGGAAGTACCTCCAGTAAGCGAAAGCTGAAGTAAGGGAAATACGGCAAGACTAACTTGTTAGTCTTACAGTGTGGATAACCTGGTAGTTATCCCCGACAAGAGACCTGACTCGATGTGAAAACATCCAACTAGGTTGGCTTCAAACTAGCTACAGGCAGGATATCCCCCAACGGGGCCTCCAAGGAATCGAGAACCAACCCTCATTCCACGTCTGTAGTAAGCAAAAACAGGGGCGATCTTCACCGACACCTCTCACCACAGAGCACACCAACCTCTGTGAAGCCAATTTCCTCGTCCAAGGACAGGTTATTGAGGGTCAACTTTCTTCCGACCAGAAGAAGGGATTTCCTACCAAAAGAAAAACCAAATCCACCAACACCACAAGGTAAAACAACAACTTGTGAAGCCAATACTTAGTCAAAGACTAACTATTGAGGGTCAACTTTCTCTTCAATAGAGAAGGGATTTCCTGGTAAAACAAATAACAACAACTAACATCAGCAACT
modifications: Ball python nidovirus

This data set deals with HEK293 cells. Type of data set: cell-based, human. The note with it: luminescence from secreted Gluc in supernatant 24 hours after transfection of HEK293 cells; circular RNA encoding Gluc with the named IRES (UTR truncated to 675 nt).
In turn, B1 had an Expression of 9.76E+04.
Under B2 stands 7.99E+07; under B3, 7.43E+04; under B4, 2.70E+06.
Regarding B5, the Expression was found to be 2.62E+06.
With B6, the Expression was 3.62E+06.
B7 gave an Expression of 2.22E+05.
Then B8, with 1.16E+05.
Under B9 stands 1.85E+07; under B10, 8.05E+04.
Under B11 stands 8.25E+04.

For the origin of these results see patent publication US20230226096A1 (Orna Therapeutics, Inc., priority 2020, published 2023).
